# Test results: patent US20250313635A1, “ANTI-INTEGRIN ANTIBODIES AND USES THEREOF” (Merck Sharp & Dohme LLC, priority 2022, published 2025)
# B1: Ab-29 (antibody, V domains shown)
# VH: ELQLQESGPGLVKPSETLSLTCTVSGGSISSNSYYWGWIRQPPGKGLEWIGSIYYSGSTYYNPSLKSRVTISVDTSKNQFSLKLSSVTAADTAVYYCARVRRVAGRGDSYYYYYGMDVWGQGTTVTVSS
# VL: DIQMTQSPSSVSASVGDRVTITCRASQGISRWLAWYQQKPGKAPKLLIYAASSLQSGVPSRFSGSGSGTDFTLTISSLQPEDFATYYCQQAISHPWTFGGGTKVEIK
# B2: Ab-30 (antibody, V domains shown)
# VH: EVQLQESGPGLVKPSETLSLTCAVSGYSISSGYYWGWIRQPPGKGLEWIGSIYHSGNTYYNPSLKSRVTISVDTSKNQFSLKLSSVTAADTAVYYCARVPRYSRGDAYYYYGMDVWGQGTTVTVSS
# VL: DIQMTQSPSTLSASVGDRVTITCRASQSISSWLAWYQQKPGKAPKLLIYKASSLESGVPSRFSGSGSGTEFTLTISSLQPDDFATYYCQQVKIYPPYTFGGGTKVEIK
# B3: Ab-31 (antibody, V domains shown)
# VH: B2 VH
# VL: DIQMTQSPSTLSASVGDRVTITCRASQSIGSWLAWYQQKPGKAPKLLIYKASSLESGVPSRFSGSGSGTEFTLTISSLQPDDFATYYCQQSGPYPWTFGGGTKVEIK
# Biological target: recombinant mouse αvβ8 integrin extracellular domains (mouse) (UniProt P43406)
# Sequence (P43406 other isoform, or with tags, fused parts or gaps, form in doubt, chain 1 of 2): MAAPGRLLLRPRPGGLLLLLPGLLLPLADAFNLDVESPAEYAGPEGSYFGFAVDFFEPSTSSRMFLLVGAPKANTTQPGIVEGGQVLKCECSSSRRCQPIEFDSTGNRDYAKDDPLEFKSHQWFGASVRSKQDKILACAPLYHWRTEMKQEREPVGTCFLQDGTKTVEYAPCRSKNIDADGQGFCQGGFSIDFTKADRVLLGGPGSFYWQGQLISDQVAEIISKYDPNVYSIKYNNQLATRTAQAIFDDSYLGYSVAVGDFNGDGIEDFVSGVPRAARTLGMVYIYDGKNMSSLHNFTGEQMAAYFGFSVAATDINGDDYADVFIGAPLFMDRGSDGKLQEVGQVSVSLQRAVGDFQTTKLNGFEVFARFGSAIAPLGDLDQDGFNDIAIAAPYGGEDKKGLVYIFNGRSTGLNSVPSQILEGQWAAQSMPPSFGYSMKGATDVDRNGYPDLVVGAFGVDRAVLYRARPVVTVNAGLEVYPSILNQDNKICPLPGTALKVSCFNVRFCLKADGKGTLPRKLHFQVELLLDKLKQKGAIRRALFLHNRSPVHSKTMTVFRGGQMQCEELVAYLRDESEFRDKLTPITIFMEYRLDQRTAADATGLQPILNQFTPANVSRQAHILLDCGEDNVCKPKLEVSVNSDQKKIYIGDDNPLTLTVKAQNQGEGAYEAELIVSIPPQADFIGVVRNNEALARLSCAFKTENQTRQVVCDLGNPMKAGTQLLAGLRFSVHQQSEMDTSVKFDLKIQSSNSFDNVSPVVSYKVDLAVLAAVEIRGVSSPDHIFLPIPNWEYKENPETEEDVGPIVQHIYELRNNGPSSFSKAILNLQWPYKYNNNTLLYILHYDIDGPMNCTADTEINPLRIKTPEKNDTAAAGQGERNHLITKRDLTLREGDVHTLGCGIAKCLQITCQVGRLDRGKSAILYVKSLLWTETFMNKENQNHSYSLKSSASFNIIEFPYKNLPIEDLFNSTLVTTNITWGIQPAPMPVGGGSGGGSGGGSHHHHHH
# Sequence (Q0VBD0 other isoform, or with tags, fused parts or gaps, form in doubt, chain 2 of 2, further chain): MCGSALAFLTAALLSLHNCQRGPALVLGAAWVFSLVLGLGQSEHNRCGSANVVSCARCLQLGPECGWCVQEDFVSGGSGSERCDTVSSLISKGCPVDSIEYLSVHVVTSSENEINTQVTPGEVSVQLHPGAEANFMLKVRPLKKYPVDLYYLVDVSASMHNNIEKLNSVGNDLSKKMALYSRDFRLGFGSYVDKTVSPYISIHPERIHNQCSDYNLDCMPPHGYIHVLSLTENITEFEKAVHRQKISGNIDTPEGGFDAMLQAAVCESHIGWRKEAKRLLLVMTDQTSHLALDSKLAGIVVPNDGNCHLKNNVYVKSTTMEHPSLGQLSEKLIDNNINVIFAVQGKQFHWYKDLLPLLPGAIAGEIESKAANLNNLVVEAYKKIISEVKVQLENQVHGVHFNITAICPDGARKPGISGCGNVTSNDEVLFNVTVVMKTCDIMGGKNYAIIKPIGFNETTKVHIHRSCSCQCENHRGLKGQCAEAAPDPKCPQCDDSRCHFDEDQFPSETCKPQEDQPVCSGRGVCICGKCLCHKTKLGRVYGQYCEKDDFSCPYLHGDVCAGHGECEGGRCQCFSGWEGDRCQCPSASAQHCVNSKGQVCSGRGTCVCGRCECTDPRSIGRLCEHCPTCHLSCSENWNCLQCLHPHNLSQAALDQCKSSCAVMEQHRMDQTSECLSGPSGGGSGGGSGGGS
# Experiment: AlphaLISA blocking of mouse LAP-6His binding
row,IC50 [nM],Binder
1,102,B1
2,25.1,B2
3,66.3,B3
